For two substances, fold increase in binding compared to Construct 5 (SIF3) and EC50 results are on record in patent US20210221917A1.

For test [1], the target named is FcyRIIb (UniProt P31994). Kind of test: cell-based competitive TR-FRET assay (CisBio Bioassays); reference: Construct 5 (SIF3). On the technique in general: Time-resolved FRET reads energy transfer from a long-lived donor to a nearby acceptor.
A further test addresses FcyRIIIa (UniProt P08637). The test can be described thus: cell-based competitive TR-FRET.
The target of another test is FcyRIIa (UniProt P12318). The test can be described thus: cell-based competitive TR-FRET.
For test [2], the target named is FcyRIIb (UniProt P31994). Kind of test: cell-based competitive TR-FRET.
For another test, the target named is FcγRIIIa (UniProt P08637). The test can be described thus: cell-based competitive TR-FRET.
The next test deals with FcγRIIa (UniProt P12318). The test can be described thus: cell-based competitive TR-FRET.
In the next test the target is FcγRIIb (UniProt P31994). The test can be described thus: cell-based competitive TR-FRET.

As a reminder, the EC50 is the midpoint of the concentration-response curve. Substance “Construct 5-FcyRIIb+ mutant (Construct 5 backbone with S267E/L328F) (from UniProt P01857 27-328; P0DOX5 223-449)” yielded a fold increase in binding compared to Construct 5 (SIF3) with FcyRIIb [1] of over 300 fold. Further, the EC50 in the test with FcyRIIIa worked out at 26.7 nM; with FcyRIIa, 0.126 nM; in the test with FcyRIIb [2] it was 0.0165 nM.
Regarding IgG1, the EC50 was 96.2 nM with FcγRIIIa, 502 nM with FcγRIIa and 1690 nM in the test with FcγRIIb.
